This note sets out measurements from publication PMC3430870 (Nature structural & molecular biology, 2011).

For orientation: Kd means the equilibrium constant for the complex coming apart. Low values mean a tighter complex, high ones a looser complex.

What all share (assay): SPR
Background: Surface plasmon resonance follows binding to a sensor surface in real time, without labels.

For assay [1], the target named is T1, mouse Wnt3a (mouse, UniProt P27467 19-352).
The target in assay [2] is T1, mouse Wnt3a. The source holds these as a separate data set.
For assay [3], the target named is T1, mouse Wnt3a. The source holds these as a separate data set.
Assay [4] addresses T1, mouse Wnt3a. The source holds these as a separate data set.
For assay [5], the target named is T1, mouse Wnt3a. The source holds these as a separate data set.

Read-outs that look alike come from different tables or passages of the source.

T1 sequence (P27467 19-352): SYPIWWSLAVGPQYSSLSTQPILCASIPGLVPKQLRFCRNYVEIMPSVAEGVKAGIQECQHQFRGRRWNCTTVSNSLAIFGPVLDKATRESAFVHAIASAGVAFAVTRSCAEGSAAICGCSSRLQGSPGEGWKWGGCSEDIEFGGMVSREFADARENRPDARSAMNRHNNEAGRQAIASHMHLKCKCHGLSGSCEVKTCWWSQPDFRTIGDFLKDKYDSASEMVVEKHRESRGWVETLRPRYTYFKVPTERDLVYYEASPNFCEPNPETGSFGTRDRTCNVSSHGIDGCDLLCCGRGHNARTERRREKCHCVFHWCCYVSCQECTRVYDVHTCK

B1: WIF-1_(EGFs I-V) (human WIF-1 residues 178-346) (domain or fragment, UniProt Q9Y5W5 178-346, looked up)
chain: QQAECPGGCRNGGFCNERRICECPDGFHGPHCEKALCTPRCMNGGLCVTPGFCICPPGFYGVNCDKANCSTTCFNGGTCFYPGKCICPPGLEGEQCEISKCPQPCRNGGKCIGKSKCKCSKGYQGDLCSKPVCEPGCGAHGTCHEPNKCQCQEGWHGRHCNKRYEASLI
In the case of B1, in assay [1], the Kd amounted to 0.9 µM.

B2: WIF-1ΔC (human WIF-1 residues 35-346) (domain or fragment, UniProt Q9Y5W5 35-346, looked up)
chain: SLYLWIDAHQARVLIGFEEDILIVSEGKMAPFTHDFRKAQQRMPAIPVNIHSMNFTWQAAGQAEYFYEFLSLRSLDKGIMADPTVNVPLLGTVPHKASVVQVGFPCLGKQDGVAAFEVDVIVMNSEGNTILKTPQNAIFFKTCQQAECPGGCRNGGFCNERRICECPDGFHGPHCEKALCTPRCMNGGLCVTPGFCICPPGFYGVNCDKANCSTTCFNGGTCFYPGKCICPPGLEGEQCEISKCPQPCRNGGKCIGKSKCKCSKGYQGDLCSKPVCEPGCGAHGTCHEPNKCQCQEGWHGRHCNKRYEASLI
Regarding B2, the affinity in assay [1], expressed as Kd, was 0.0216 µM. This Kd is about 42-fold lower than that of the molecule before.

B3: WIF-1ΔC Met77Trp (domain or fragment, human, UniProt Q9Y5W5 35-346, looked up)
chain: SLYLWIDAHQARVLIGFEEDILIVSEGKMAPFTHDFRKAQQRWPAIPVNIHSMNFTWQAAGQAEYFYEFLSLRSLDKGIMADPTVNVPLLGTVPHKASVVQVGFPCLGKQDGVAAFEVDVIVMNSEGNTILKTPQNAIFFKTCQQAECPGGCRNGGFCNERRICECPDGFHGPHCEKALCTPRCMNGGLCVTPGFCICPPGFYGVNCDKANCSTTCFNGGTCFYPGKCICPPGLEGEQCEISKCPQPCRNGGKCIGKSKCKCSKGYQGDLCSKPVCEPGCGAHGTCHEPNKCQCQEGWHGRHCNKRYEASLI
With B3, the Kd in assay [1] was 0.217 µM.

B4: WIF-1_(WD-EGFs I-III) (human WIF-1 residues 35-274) (domain or fragment, UniProt Q9Y5W5 35-274, looked up)
chain: SLYLWIDAHQARVLIGFEEDILIVSEGKMAPFTHDFRKAQQRMPAIPVNIHSMNFTWQAAGQAEYFYEFLSLRSLDKGIMADPTVNVPLLGTVPHKASVVQVGFPCLGKQDGVAAFEVDVIVMNSEGNTILKTPQNAIFFKTCQQAECPGGCRNGGFCNERRICECPDGFHGPHCEKALCTPRCMNGGLCVTPGFCICPPGFYGVNCDKANCSTTCFNGGTCFYPGKCICPPGLEGEQCE
Molecule B4 gave a Kd in assay [1] of 3.21 µM.

B5: WIF-1_(WD-EGF-I) (human WIF-1 residues 35-210) (domain or fragment, UniProt Q9Y5W5 35-210, looked up)
chain: SLYLWIDAHQARVLIGFEEDILIVSEGKMAPFTHDFRKAQQRMPAIPVNIHSMNFTWQAAGQAEYFYEFLSLRSLDKGIMADPTVNVPLLGTVPHKASVVQVGFPCLGKQDGVAAFEVDVIVMNSEGNTILKTPQNAIFFKTCQQAECPGGCRNGGFCNERRICECPDGFHGPHCE
For B5, the Kd in assay [1] was 5.6 µM; in assay [2] it was 16.9 µM; in assay [3], 15.9 µM; in assay [4], 9.86 µM; in assay [5] it was 16.8 µM.

B6: WIF-1_(WD-EGF-I) Met77Trp (domain or fragment, human, UniProt Q9Y5W5 35-210, looked up)
chain: SLYLWIDAHQARVLIGFEEDILIVSEGKMAPFTHDFRKAQQRWPAIPVNIHSMNFTWQAAGQAEYFYEFLSLRSLDKGIMADPTVNVPLLGTVPHKASVVQVGFPCLGKQDGVAAFEVDVIVMNSEGNTILKTPQNAIFFKTCQQAECPGGCRNGGFCNERRICECPDGFHGPHCE
Consider B6, for which binding in assay [1] was characterised by a dissociation constant (Kd) of 2.86 µM. This lies in the single-digit micromolar range.

B7: WIF-1WD (WIF domain of human Wnt inhibitory factor 1, residues 35-178) (domain or fragment, UniProt Q9Y5W5 35-178, looked up)
chain: SLYLWIDAHQARVLIGFEEDILIVSEGKMAPFTHDFRKAQQRMPAIPVNIHSMNFTWQAAGQAEYFYEFLSLRSLDKGIMADPTVNVPLLGTVPHKASVVQVGFPCLGKQDGVAAFEVDVIVMNSEGNTILKTPQNAIFFKTCQ
In assay [1], B7 yielded a Kd of 3.4 µM.
